US20250289896A1 (ANALYTICAL BIOSCIENCES SHANGHAI, published 2025)
Like-named read-outs stand apart in the source and are kept apart here.

T1: mCCR8 (UniProt P56484 1-353, limits assumed)
T1 construct: whole, on cells; also called 293T-mCCR8
T1 sequence (looked up): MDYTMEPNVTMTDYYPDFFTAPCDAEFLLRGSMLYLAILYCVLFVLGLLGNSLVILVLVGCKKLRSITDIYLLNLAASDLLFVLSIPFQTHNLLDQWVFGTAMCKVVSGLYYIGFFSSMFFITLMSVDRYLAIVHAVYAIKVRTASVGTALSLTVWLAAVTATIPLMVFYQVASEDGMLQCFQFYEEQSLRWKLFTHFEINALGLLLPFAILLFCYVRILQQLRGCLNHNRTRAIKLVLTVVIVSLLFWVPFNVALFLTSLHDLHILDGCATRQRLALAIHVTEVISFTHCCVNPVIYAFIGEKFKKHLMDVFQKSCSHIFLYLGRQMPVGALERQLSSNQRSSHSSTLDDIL


Experiments:
[1] = molecular target: T2, Human CCR8 (C-C chemokine receptor type 8) (human, UniProt P51685 1-355); assay: flow cytometry, 293T cells overexpressing human CCR8
T2 construct: overexpressed on HEK293T (293T-hCCR8), Jurkat-hCCR8 and CHEM1-CCR8 cells; also called hCCR8
T2 sequence (P51685 whole entry): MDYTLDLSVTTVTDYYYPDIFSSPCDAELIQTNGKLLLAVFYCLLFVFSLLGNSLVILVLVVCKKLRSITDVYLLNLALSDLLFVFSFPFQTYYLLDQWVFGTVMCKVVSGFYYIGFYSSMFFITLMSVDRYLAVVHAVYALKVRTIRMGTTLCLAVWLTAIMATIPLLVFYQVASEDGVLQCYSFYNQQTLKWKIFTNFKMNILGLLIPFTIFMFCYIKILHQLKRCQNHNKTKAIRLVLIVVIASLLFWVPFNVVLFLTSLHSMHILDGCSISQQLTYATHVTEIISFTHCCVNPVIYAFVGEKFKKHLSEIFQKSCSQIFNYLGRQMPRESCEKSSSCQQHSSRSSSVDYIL
Experimental: (§1) Binding specificity of the anti-CCR8 antibodies (mAbs) was tested by FACS using several cell lines. […] The binding titration of the anti-CCR8 antibodies to CCR8 transfectants was performed by serial dilution of antibodies. The diluted antibody (50 μl) in flow cytometry buffer (PBS, 0.5% BSA, 1 mM EDTA) was incubated with cells (50 μl) at a concentration of 2 million cells/ml on ice for 30 min. After two washes with flow cytometry buffer, bound antibody was detected with Alexa647-labeled F(ab′)2 fragment goat anti-human IgG (Jackson ImmunoResearch #709-606-149) (1:500 dilution) for 20 minutes on ice. The fluorescence was measured on a Cytek Aurora cytometer, after two washes with flow cytometry buffer. The data were analyzed with GraphPad Prism 8.0 software to determine EC50 values.

[2] = molecular target: T2, Human CCR8 (C-C chemokine receptor type …); assay: flow cytometry, Hut78 cells (endogenous human CCR8)
Experimental: as §1

cynomolgus macaque CCR8 [3] = molecular target: T3, cynomolgus macaque CCR8 (cynomolgus macaque, UniProt G7NYJ2 1-355); assay: flow cytometry, 293T cells overexpressing cynomolgus CCR8
T3 construct: whole, on cells; Overexpressed on 293T cells (293T-cCCR8) and Jurkat cells (Jurkat-cynoCCR8); also called cCCR8; cyno CCR8
T3 sequence (G7NYJ2 entry or part of it): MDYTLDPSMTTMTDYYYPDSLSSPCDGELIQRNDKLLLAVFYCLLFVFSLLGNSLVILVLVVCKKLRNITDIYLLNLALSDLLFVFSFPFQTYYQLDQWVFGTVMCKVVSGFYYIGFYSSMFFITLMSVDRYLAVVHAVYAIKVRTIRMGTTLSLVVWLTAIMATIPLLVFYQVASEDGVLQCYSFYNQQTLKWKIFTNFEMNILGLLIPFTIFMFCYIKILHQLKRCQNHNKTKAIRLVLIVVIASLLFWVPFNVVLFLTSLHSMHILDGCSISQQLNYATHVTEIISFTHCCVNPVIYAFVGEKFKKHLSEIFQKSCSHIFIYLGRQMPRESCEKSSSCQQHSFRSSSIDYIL
Experimental: as §1

cynomolgus macaque CCR8 [4] = molecular target: T3, cynomolgus macaque CCR8; assay: cell-based or functional assay
mCCR8 = molecular target: T1, mCCR8; assay: flow cytometry, 293T cells with mCCR8
Experimental: as §1

[5] = molecular target: T2, Human CCR8 (C-C chemokine receptor type …); assay: cell-based or functional assay
[6] = molecular target: T2, Human CCR8 (C-C chemokine receptor type …); assay: cell-based or functional assay; remark: listed apart in the source
[7] = molecular target: T2, Human CCR8 (C-C chemokine receptor type …); assay: cell-based or functional assay; remark: listed apart in the source
[8] = molecular target: T2, Human CCR8 (C-C chemokine receptor type …); assay: flow cytometry, 293T cells overexpressing human CCR8; remark: listed apart in the source
Experimental: as §1

cynomolgus macaque CCR8 [9] = molecular target: T3, cynomolgus macaque CCR8; assay: flow cytometry, 293T cells overexpressing cynomolgus CCR8; remark: listed apart in the source
Experimental: as §1

[10] = molecular target: T2, Human CCR8 (C-C chemokine receptor type …); assay: flow cytometry, Hut78 cells (endogenous human CCR8); remark: listed apart in the source
Experimental: as §1

| Binder | EC50 [1] [nM] | EC50 [2] [nM] | EC50 (cynomolgus macaque CCR8 [3]) [nM] | binding result (mCCR8) | EC50 [8] [nM] | EC50 (cynomolgus macaque CCR8 [9]) [nM] | EC50 [10] [nM] | ADCC killing of Jurkat-cynoCCR8 cells, IC50 (pM) (cynomolgus macaque CCR8 [4]) | ADCC killing of Jurkat-hCCR8 cells, IC50 (pM) [5] [pM] | ADCC killing of Hut78 cells, IC50 (pM) [6] [pM] | ADCC killing of TALL-1 cells, Median EC50 (pM) [7] [pM] |
| --- | --- | --- | --- | --- | --- | --- | --- | --- | --- | --- | --- |
| ChH2-AF (antibody, human IgG1, kappa) heavy: not shown light: DIVMTQAAPSVPVTPGESVSISCRSSQSLLHSNGNTYLYWFLQRPGQSPQLLIYRMSNLASGVPDRFSGSGSGTAFTLRISRVEAEDVGVYYCMQHLEYPFTFGIGTKLELKRTVAAPSVFIFPPSDEQLKSGTASVVCLLNNFYPREAKVQWKVDNALQSGNSQESVTEQDSKDSTYSLSSTLTLSKADYEKHKVYACEVTHQGLSSPVTKSFNRGEC | – | – | – | – | – | – | – | – | – | – | 2.55 |
| ChB1-AF (antibody, human IgG1, kappa) heavy: not shown light: DIVMTQAAPSVVVTPGESVSISCRSSKSLLHSNGNTYLYWFLQRPGQSPQLLIYRMSNLASGVPDRFSGSGSGTAFTLRISRVEAEDVGVYYCMQHVEYPFTFGGGTKVQIKRTVAAPSVFIFPPSDEQLKSGTASVVCLLNNFYPREAKVQWKVDNALQSGNSQESVTEQDSKDSTYSLSSTLTLSKADYEKHKVYACEVTHQGLSSPVTKSFNRGEC | – | – | – | – | – | – | – | – | – | – | 9.8 |

More lines, main results first:

| EC50 [1] [nM] | EC50 [2] [nM] | EC50 (cynomolgus macaque CCR8 [3]) [nM] | binding result (mCCR8) | EC50 [8] [nM] | EC50 (cynomolgus macaque CCR8 [9]) [nM] | EC50 [10] [nM] | Binder | ADCC killing of Jurkat-cynoCCR8 cells, IC50 (pM) (cynomolgus macaque CCR8 [4]) | ADCC killing of Jurkat-hCCR8 cells, IC50 (pM) [5] [pM] | ADCC killing of Hut78 cells, IC50 (pM) [6] [pM] | ADCC killing of TALL-1 cells, Median EC50 (pM) [7] [pM] |
| --- | --- | --- | --- | --- | --- | --- | --- | --- | --- | --- | --- |
| 0.373 | 4.12 | 0.445 | no binding | – | – | – | ABC1183 (antibody, human IgG1, kappa, V domains shown, Humanized format of ABC822) VH: EVQLLESGGGLVQPGGSLRLSCAASGFSFSDYYMAWVRQAPGKGLEWVASISNAGTKTYYGDSVKGRFTISRDDSKNTLYLQMNSLRAEDTAVYYCVRQDLYYGRNQYWYFDFWGRGTLVTVSS VL: DIQMTQSPSSLSASVGDRVTITCKASQSVGSNVDWYQQKPGKSPKLLIYKTSSRFTGVPSRFSGSGSRTDFTLTISSLQPEDFATYYCVQSNSYPYTFGAGTKLELKR | 6.15 | 1.8 | 7.95 | – |
| 0.269 | 2.92 | 0.464 | no binding | 0.0684 | 0.0938 | 3.16 | ABC822 (antibody, human IgG1, kappa, V domains shown) VH: EVQLVESGGGLMQPGRSLKLSCAASGFSFSDYYMAWVRQAPKKGLEWVASISNAGTKTYYGDSVKGRFTISRDDAKSTLYLQMNSLRSEDTATYYCVRQDLYYGRNQYWYFDFWGPGTMVTVSS VL: IVMTQSPTSMSKSVGDRVTMNCKASQSVGSNVDWYQQKTGQSPKLLIYKTSSRFTGVPDRFTGSGSRTDFTFTISSMQAEDLALYYCVQSNSYPYTFGAGTKLELKR | 7.19 | 9.68 | 6.31 | – |
